# In IntAct's records for PubMed 20956942:
# B1: Thyroid hormone receptor beta (Homo sapiens), P10828-1 (parent)
# chain: MTPNSMTENGLTAWDKPKHCPDREHDWKLVGMSEACLHRKSHSERRSTLKNEQSSPHLIQTTWTSSIFHLDHDDVNDQSVSSAQTFQTEEKKCKGYIPSYLDKDELCVVCGDKATGYHYRCITCEGCKGFFRRTIQKNLHPSYSCKYEGKCVIDKVTRNQCQECRFKKCIYVGMATDLVLDDSKRLAKRKLIEENREKRRREELQKSIGHKPEPTDEEWELIKTVTEAHVATNAQGSHWKQKRKFLPEDIGQAPIVNAPEGGKVDLEAFSHFTKIITPAITRVVDFAKKLPMFCELPCEDQIILLKGCCMEIMSLRAAVRYDPESETLTLNGEMAVTRGQLKNGGLGVVSDAIFDLGMSLSSFNLDDTEVALLQAVLLMSSDRPGLACVERIEKYQDSFLLAFEHYINYRKHHVTHFWPKLLMKVTDLRMIGACHASRFLHMKVECPTELFPPLFLEVFED
# Variants of: B1
# Settings: with ncoa3_human NCOA3, Q9Y6Q9
row,Variant,effect of a mutation on the interaction
1,MTPNSMTENGLTAWDKPKHCPDREHDWKLVGMSEACLHRKSHSERRSTLKNEQSSPHLIQTTWTSSIFHLDHDDVNDQSVSSAQTFQTEEKKCKGYIPSYLDKDELCVVCGDKATGYHYRCITCEGCKGFFRRTIQKNLHPSYSCKYEGKCVIDKVTRNQCQECRFKKCIYVGMATDLVLDDSKRLAKRKLIEENREKRRREELQKSIGHKPEPTDEEWELIKTVTEAHVATNAQGSHWKQKRKFLPEDIGQAPIVNAPEGGKVDLEAFSHFTKIITPAITRVVDFAIKLPMFCELPCEDQIILLKGCCMEIMSLRAAVRYDPESETLTLNGEMAVTRGQLKNGGLGVVSDAIFDLGMSLSSFNLDDTEVALLQAVLLMSSDRPGLACVERIEKYQDSFLLAFEHYINYRKHHVTHFWPKLLMKVTDLRMIGACHASRFLHMKVECPTELFPPLFLEVFED [K288I],disrupting interaction
2,MTPNSMTENGLTAWDKPKHCPDREHDWKLVGMSEACLHRKSHSERRSTLKNEQSSPHLIQTTWTSSIFHLDHDDVNDQSVSSAQTFQTEEKKCKGYIPSYLDKDELCVVCGDKATGYHYRCITCEGCKGFFRRTIQKNLHPSYSCKYEGKCVIDKVTRNQCQECRFKKCIYVGMATDLVLDDSKRLAKRKLIEENREKRRREELQKSIGHKPEPTDEEWELIKTVTEAHVATNAQGSHWKQKRKFLPEDIGQAPIVNAPEGGKVDLEAFSHFTKIITPAITRVVDFAKKLPMFCELPCEDQIILLKGCCMEIMSLRAAVRYDPESETLTLNGEMAVTRGQLKNGGLGVVSDAIFDLGMSLSSFNLDDTEVALLQAVLLMSSDRPGLACVERIEKYQDSFLLAFEHYINYRKHHVTHFWPKLLMKVTDLRMIGACHASRFLHMKVECPTELFPPLFLQVFED [E457Q],decreasing interaction

# Other lines, results leading:
row,effect of a mutation on the interaction,Variant
1,increasing interaction,MTPNSMTENGLTAWDKPKHCPDREHDWKLVGMSEACLHRKSHSERRSTLKNEQSSPHLIQTTWTSSIFHLDHDDVNDQSVSSAQTFQTEEKKCKGYIPSYLDKDELCVVCGDKATGYHYRCITCEGCKGFFRRTIQKNLHPSYSCKYEGKCVIDKVTRNQCQECRFKKCIYVGMATDLVLDDSKRLAKRKLIEENREKRRREELQKSIGHKPEPTDEEWELIKTVTEAHVATNAQGSHWKQKWKFLPEDIGQAPIVNAPEGGKVDLEAFSHFTKIITPAITRVVDFAKKLPMFCELPCEDQIILLKGCCMEIMSLRAAVRYDPESETLTLNGEMAVTRGQLKNGGLGVVSDAIFDLGMSLSSFNLDDTEVALLQAVLLMSSDRPGLACVERIEKYQDSFLLAFEHYINYRKHHVTHFWPKLLMKVTDLRMIGACHASRFLHMKVECPTELFPPLFLEVFED [R243W]
2,increasing interaction,MTPNSMTENGLTAWDKPKHCPDREHDWKLVGMSEACLHRKSHSERRSTLKNEQSSPHLIQTTWTSSIFHLDHDDVNDQSVSSAQTFQTEEKKCKGYIPSYLDKDELCVVCGDKATGYHYRCITCEGCKGFFRRTIQKNLHPSYSCKYEGKCVIDKVTRNQCQECRFKKCIYVGMATDLVLDDSKRLAKRKLIEENREKRRREELQKSIGHKPERTDEEWELIKTVTEAHVATNAQGSHWKQKRKFLPEDIGQAPIVNAPEGGKVDLEAFSHFTKIITPAITRVVDFAKKLPMFCELPCEDQIILLKGCCMEIMSLRAAVRYDPESETLTLNGEMAVTRGQLKNGGLGVVSDAIFDLGMSLSSFNLDDTEVALLQAVLLMSSDRPGLACVERIEKYQDSFLLAFEHYINYRKHHVTHFWPKLLMKVTDLRMIGACHASRFLHMKVECPTELFPPLFLEVFED [P214R]

# Variants of: B1
# Settings: with ncor2_human NCOR2, Q9Y618
row,effect of a mutation on the interaction,Variant
1,increasing interaction,MTPNSMTENGLTAWDKPKHCPDREHDWKLVGMSEACLHRKSHSERRSTLKNEQSSPHLIQTTWTSSIFHLDHDDVNDQSVSSAQTFQTEEKKCKGYIPSYLDKDELCVVCGDKATGYHYRCITCEGCKGFFRRTIQKNLHPSYSCKYEGKCVIDKVTRNQCQECRFKKCIYVGMATDLVLDDSKRLAKRKLIEENREKRRREELQKSIGHKPEPTDEEWELIKTVTEAHVATNAQGSHWKQKWKFLPEDIGQAPIVNAPEGGKVDLEAFSHFTKIITPAITRVVDFAKKLPMFCELPCEDQIILLKGCCMEIMSLRAAVRYDPESETLTLNGEMAVTRGQLKNGGLGVVSDAIFDLGMSLSSFNLDDTEVALLQAVLLMSSDRPGLACVERIEKYQDSFLLAFEHYINYRKHHVTHFWPKLLMKVTDLRMIGACHASRFLHMKVECPTELFPPLFLEVFED [R243W]
2,decreasing interaction,MTPNSMTENGLTAWDKPKHCPDREHDWKLVGMSEACLHRKSHSERRSTLKNEQSSPHLIQTTWTSSIFHLDHDDVNDQSVSSAQTFQTEEKKCKGYIPSYLDKDELCVVCGDKATGYHYRCITCEGCKGFFRRTIQKNLHPSYSCKYEGKCVIDKVTRNQCQECRFKKCIYVGMATDLVLDDSKRLAKRKLIEENREKRRREELQKSIGHKPERTDEEWELIKTVTEAHVATNAQGSHWKQKRKFLPEDIGQAPIVNAPEGGKVDLEAFSHFTKIITPAITRVVDFAKKLPMFCELPCEDQIILLKGCCMEIMSLRAAVRYDPESETLTLNGEMAVTRGQLKNGGLGVVSDAIFDLGMSLSSFNLDDTEVALLQAVLLMSSDRPGLACVERIEKYQDSFLLAFEHYINYRKHHVTHFWPKLLMKVTDLRMIGACHASRFLHMKVECPTELFPPLFLEVFED [P214R]
3,decreasing interaction,MTPNSMTENGLTAWDKPKHCPDREHDWKLVGMSEACLHRKSHSERRSTLKNEQSSPHLIQTTWTSSIFHLDHDDVNDQSVSSAQTFQTEEKKCKGYIPSYLDKDELCVVCGDKATGYHYRCITCEGCKGFFRRTIQKNLHPSYSCKYEGKCVIDKVTRNQCQECRFKKCIYVGMATDLVLDDSKRLAKRKLIEENREKRRREELQKSIGHKPEPTDEEWELIKTVTEGGVAANAQGSHWKQKRKFLPEDIGQAPIVNAPEGGKVDLEAFSHFTKIITPAITRVVDFAKKLPMFCELPCEDQIILLKGCCMEIMSLRAAVRYDPESETLTLNGEMAVTRGQLKNGGLGVVSDAIFDLGMSLSSFNLDDTEVALLQAVLLMSSDRPGLACVERIEKYQDSFLLAFEHYINYRKHHVTHFWPKLLMKVTDLRMIGACHASRFLHMKVECPTELFPPLFLEVFED [A228G;H229G;T232A]
